Experimental data: the supplement of paper PMC9170038

System: MS2 coat protein
Experiment: apparent KD of MS2 coat protein; designed switch direction (-1 OFF switch, 1 ON switch): -1; higher = weaker reporter binding
Method in brief: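 For each design, the apparent KD is the median over clusters of curves fitted to normalised cluster fluorescence. Clusters held RNA switches with common flanks, transcribed on Illumina chips by stalled E. coli RNA polymerase. These were titrated with SNAP-549-labelled MS2 coat protein, doubling from 0.7 or 1.5 nM to 3 µM, without input, with 200 uM small-molecule ligand, or with an oligonucleotide input.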

[1] = Eterna round: R95, input ligand: microRNA oligo, concentration not stated
[2] = input ligand: microRNA oligo, concentration not stated
[3] = Eterna round: R95, input ligand: FMN 200 uM
[4] = Eterna round: R95, input ligand: none

| Sequence | apparent KD of MS2 coat protein (input ligand: FMN 200 uM) [nM] | apparent KD of MS2 coat protein (input ligand: none) [nM] | apparent KD of MS2 coat protein [1] [nM] | apparent KD of MS2 coat protein [2] [nM] | apparent KD of MS2 coat protein [3] [nM] | apparent KD of MS2 coat protein [4] [nM] |
| --- | --- | --- | --- | --- | --- | --- |
| UUGAAUUAUAAGGAUAUGGGAGUCGAUAGACACCCAGAAGGUAUAACAUGAGGAUCACCCAUGUGUCCUAUCAA [Mod of Eli 25 - Jieux - Exclusion 6] (Eterna round: R97, puzzle: Exclusion 6) | 33.6 | 18.2 | – | – | – | – |
| UACAAGCUUUUAAGAUCCUACAUGAGGAUCACCCAUGUGCUCGUCUUAUAACGUACUGUGACGAAAGUCACGGUACG [JL TOV1 3.21] (Eterna round: R97, puzzle: Sensor, turn-off variant 1) | 92.9 | 103 | – | – | – | – |
| UUUUAACAUGAGGAUCACCCAUGUGAGGAUAUCGAAAUUUAUAUUAAUAUUAUUAUUUCGAGAAGGCACAUUUU [JMF 41] (puzzle: Exclusion 1) | – | – | 155 | – | – | – |
| GUUUUAUAUGAAGGAUAUACUUAACAUGAGGAUCACCCAUGUGGUGUUGUGAGUGAGUGAGUUUAGUAGAAGGUCAAGUAUUUU [JMF's solution 56] (Eterna round: R96, puzzle: Exclusion NG 2) | 335 | 319 | – | 231 | – | – |
| UUAACGUCAGGAUAUGCUUAAUAUAUUAUAUUAUAAUAUAUACAUGAGGAUCACCCAUGUAGAAGGGACAUUAU [LRO-Excl2-02-Fireball XL5] (Eterna round: R97, puzzle: Exclusion 2) | 34.1 | 52.1 | – | – | – | – |
| AUACCACGAGGAUAUCGUCUAUAAUACAUGAGGAUCACCCAUGUUAUAUCUGUAAUGUUUCGAGAAGGCGUGUGUU [JR_E5_Sub084] (Eterna round: R96, puzzle: Exclusion 5) | 17 | 21.3 | – | 15.4 | – | – |
| GACUUCUCUGAGGAUAUUGCAUCAUACGAUCUAUAAGAAGGCAGAACAUGAGGAUCACCCAUGUGGGUUUCUAG [Bingo-Bango-28] (Eterna round: R97, puzzle: Exclusion 6) | 70.2 | 38.3 | – | – | – | – |
| UUCCUCAGCUAGGAUAUCAAGGCACCACCCUAAUGAGAAGGAGCAACAUGAGGAUCACCCAUGUGGGUUUCUUA [Aterre] (Eterna round: R97, puzzle: Exclusion 6) | 143 | 54.9 | – | – | – | – |
| UAUUCGCGAGGAUAUGCAUUCGAGUCCAUUACGUGUCUGGGACUUGAGGAUCACCCAAGUAGAAGGCGUCUCAU [salish99_ex2_r4_643] (Eterna round: R97, puzzle: Exclusion 2) | 99.7 | 145 | – | – | – | – |
| UUCCUACUUGAGGAUCACCCAAGUCAGGAUAUCCAUAACCGACACUCUUUUCGGAGCGGGAGAAGGGACUUGGC [Arbedi] (Eterna round: R97, puzzle: Exclusion 1) | 119 | 52.9 | – | – | – | – |
| CAGUACUGAGGAUAUACAUGAGGAUCACCCAUGUGUUCCGGCUAGGAAACUAGCAAAAGUAGAAGGCAGUACUG [salish99_ex3_r3_079] (puzzle: Exclusion 3) | – | – | 30.8 | – | 368 | 28.5 |
| GGUCAGAUGGUAGGAUAUCCAUAUCGAGUGACCCUUUCAUAACAUGAGGAUCACCCAUGUCGGUGGGAGAAGGGCCGUAUGGCG [salish99_ExNG02_R04_022] (Eterna round: R96, puzzle: Exclusion NG 2) | 69.8 | 51.3 | – | 34.9 | – | – |
| GGUGGGCUAGGAUAUGCUUUGGGCGGGCAUUCCUUCGAUAAACUUGAGGAUCACCCAAGUAGAAGGAGCUUGCC [salish99_ex2_r4_024] (Eterna round: R97, puzzle: Exclusion 2) | 16.2 | 12.3 | – | – | – | – |
| UAAGCAAGCGAAAGAUCCCACAUGAGGAUCACCCAUGUGCUCGUCUUAUAAGGUACUGUGACGAAAGUCACGGUACC [Sensor 3, v1 - 91 v22] (Eterna round: R97, puzzle: Sensor, turn-off variant 1) | 140 | 128 | – | – | – | – |
| CCUGCGGACAAAGGAUAUUGCGGUGGCCGGCUCGGCGUACCGAGCCUACAUGAGGAUCACCCAUGUAAGAAGGUUGUCGUUGGA [Mat - Exclusion NG 2 - Mod of JL - D71] (Eterna round: R96, puzzle: Exclusion NG 2) | 228 | 40.1 | – | 27 | – | – |
| UCUUGCUGGCGAGGAUAUCCUGUGCGGUUCCGGCUCGUGUCUGUUACAUGAGGAUCACCCAUGUGGGAGAAGGUGUCUGUGGCC [Design 97] (Eterna round: R96, puzzle: Exclusion NG 2) | 18.6 | 21.9 | – | 16.7 | – | – |
| GCCCGGGCAGGAUAUACAAUGAAGUUGAGAAAUCGGCUUCGACAUGAGGAUCACCCAUGUAGAAGGGCCCGGGC [-36.9, -34.6 kcal, A 28% 3] (Eterna round: R97, puzzle: Exclusion 2) | 17.6 | 14.6 | – | – | – | – |
| CUUUAGUGAGGAUAUCAGUAGUAAUACAAUAGUAUUAUUACUGAGAAGGCACAUGAGGAUCACCCAUGUUCCUC [Mat - Exclusion 4 - Mod of Omei - D81] (puzzle: Exclusion 4) | – | – | 26.9 | – | – | – |
| GGAUCGAGUGUGAGGAUAUGCUGGUCCUAAGAUCAGCAGAAGGCACAUGAGGAUCACCCAUGUGAAAACGGUCC [Mat - Exclusion 4 - JL Mod - D71] (puzzle: Brourd's mod of Exclusion 4) | – | – | 23.5 | – | – | – |
| CCCAGUUAUUGAGGAUAUCGUACAUGAGGAUCACCCAUGUAAUAAAUGAGGAUUUCGGGUGUCUACGAGAAGGCAAGGAUAGGC [Ostracism 21 - Jieux - Exclusion NG 2] (Eterna round: R96, puzzle: Exclusion NG 2) | 61.3 | 49.6 | – | 37.4 | – | – |
| GUGUUUCGUGUAGGAUAUGUUUGUGGGUCGCGGGCAGAAGGACAUGAGGAUCACCCAUGUUGCGGGUUCGGUUUGUGCGGGCGC [-22, -20 kcal and 14% A] (Eterna round: R96, puzzle: Exclusion NG 1) | 23.6 | 22.3 | – | 17.1 | – | – |
| UACAUGAGGAUCACCCAUGUUUUGUCGUGUAUGGUAUUUAUCUAGGAUAUCAAUUUAGUAAUUUAUGAGAAGGAGAAUAUUAAU [JMF's solution 73] (Eterna round: R96, puzzle: Exclusion NG 3) | 37.5 | 40.8 | – | 31.4 | – | – |
| CCGGAAAUAGAGGAUAUCGUAUCGGAUACGAUACGAGAAGGCUAUACAUGAGGAUCACCCAUGUGUCCUACCGG [Fiskers Ex 6 - 56] (puzzle: Exclusion 6) | – | – | 16.1 | – | – | – |
| UGCGAGUAAGGAUAUUCGCGACCACCCACAAGGGCGGUCGAGAAGAAGGUACUUGAGGAUCACCCAAGUCCUAA [Inraindi] (Eterna round: R97, puzzle: Exclusion 4) | 95.5 | 20.2 | – | – | – | – |
| AGUCCAGAUGUUAGGAUAUGCAACUAGCCAUUGUAGCAGAAGGAACAUGAGGAUCACCCAUGUACAAAGACCCG [Edgeraer] (puzzle: Brourd's mod of Exclusion 4) | – | – | 13.4 | – | 47.4 | 11.3 |
| UUGUUAUAUGUAGGAUAUGCGUGUUAUUAUUAGGCAGAAGGACAUGAGGAUCACCCAUGUAUGUUGUUGUUAUAUAUUAUAUAU [Title] (Eterna round: R96, puzzle: Exclusion NG 1) | 22.9 | 25.6 | – | 17.8 | – | – |
| UAUCGGGACUGAGGAUAUUCGUUCGAGCACGAAGAAGAAGGUAGUGUCAGGGACAUGAGGAUCACCCAUGUGAUUUCAGUCCCA [JL ViennaUCT Erinle mod 6] (Eterna round: R96, puzzle: Exclusion NG 1) | 91.4 | 133 | – | 102 | – | – |
| CGGGAGGGACAAGCUUUUUGCACGUCUGUUAUUGAUGCAACAUGAGGAUCACCCAUGUUUAGGGUGUGAGAGGAUGG [JR_SV3TOV2_Sub051] (puzzle: Sensor v3, turn-off variant 2) | – | – | 471 | – | 373 | 553 |
| UGUGCGUAUGUGAGGAUAUGCUGGUCCUUGGAUCGGCAGAAGGCACAUGAGGAUCACCCAUGUGGUGUCGUACG [salish99_Bmod_ex4_079] (puzzle: Brourd's mod of Exclusion 4) | – | – | 82.8 | – | 191 | 142 |
| UCUGGUCGAGGAUAUAUAUGACGUGCUUCGGCACGAAGGUCACAUGAGGAUCACCCAUGUAGAAGGCGACCAGA [E2/9-A3] (Eterna round: R97, puzzle: Exclusion 2) | 375 | 52.1 | – | – | – | – |
